T1: hTREM2 (Homo sapiens, UniProt Q9NZC2)
T1 construct: The ecto domain (residues 19-172) of TREM2 (UniProtKB—Q9NZC2); secretion signal of mouse Ig kappa chain V-III (P01661 aa 1-20) (N); made in house; host or cells: Expi293F
T1 sequence (Q9NZC2 19-172): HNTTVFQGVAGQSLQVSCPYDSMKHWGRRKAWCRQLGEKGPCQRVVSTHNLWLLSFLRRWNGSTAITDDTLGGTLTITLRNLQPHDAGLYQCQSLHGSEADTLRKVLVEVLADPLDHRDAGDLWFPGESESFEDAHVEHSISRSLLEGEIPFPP

T2: TREM2 (Homo sapiens, UniProt Q9NZC2)
T2 construct: macrophage cells that endogenously express TREM2; endogenous in cells; host or cells: primary human monocyte-derived macrophages from donor blood
T2 sequence (Q9NZC2 19-230): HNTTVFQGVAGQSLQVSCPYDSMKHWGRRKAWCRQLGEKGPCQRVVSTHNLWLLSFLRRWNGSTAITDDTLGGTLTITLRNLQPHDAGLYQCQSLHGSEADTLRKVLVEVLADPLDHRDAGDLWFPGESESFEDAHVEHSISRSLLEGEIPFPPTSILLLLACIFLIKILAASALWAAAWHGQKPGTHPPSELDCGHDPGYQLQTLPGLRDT


Assays:
[1] = target: T3, soluble TREM2 (sTREM2) (Homo sapiens, UniProt Q9NZC2); experiment: Soluble TREM2 (TREM2 shedding) assay in HEK293 TREM2/DAP12 cells; assay type: cell-based; design: key to STREM2: NC = no change; −− = reduced sTREM2; ++ = increased sTREM2; conditions: change in sTREM2 levels
T3 construct: expressed in transfected cells
Procedure: HEK293 cells stably expressing human TREM2 and DAP12 were plated onto 96-well plates pre-coated with poly-D-lysine 4-16 hours prior to antibody treatment. Antibody supernatants or control antibodies were diluted into fresh complete media and added onto cells in triplicate. Cells were incubated with antibody containing media for 18 hours prior to removal of the cell supernatant for assay by TREM2 ELISA. Samples and standards were diluted 1:10 into blocking buffer (3% BSA/TBST) in the assay plate. Briefly, MSD small spot streptavidin plates were coated with biotinylated anti-hTREM2 polyclonal antibody (R&D Systems) overnight at 4° C. or 1 hour at room temperature. Plates were then blocked overnight at 4° C., or 1 hour at room temperature, with blocking buffer, 3% BSA/TBST. Plates were washed three times with TBST in a Biotek plate washer (used for all washes) prior to addition of diluent (blocking buffer) and denatured supernatants from cell culture. A TREM2-His protein diluted in 3% BSA/TBST was used as a standard for absolute quantification. Following 1 hour incubation at room temperature, plates were washed with TBST. The primary detection antibody, sulfo-tagged goat anti-human TREM2 (R&D Systems), diluted in 3% BSA/TBST was added and incubated for 1 hour at room temperature. After washing with TBST, MSD plates were developed using 2×MSD read buffer T, followed by detection using an MSD Sector plate reader. MSD values were converted to absolute quantities of sTREM2 by fitting a standard curve using Prism 7.0 software (Graphpad). Modulation of TREM2 shedding was represented as a ratio to cells cultured with no specific TREM2 antibody in the media.

[2] = system: human macrophages; experiment: Cell survival assay, human monocyte-derived macrophages, restricted or no M-CSF, CellTiter Glo; assay type: cell-based; conditions: plate coated antibody, 5 ng/mL or no M-CSF, day 6
Procedure: TREM2 can support microglia energy homeostasis (Ulland et al., Cell, 2017, 170:649-663). […] To understand if enhancing TREM2 activity with TREM2 agonistic antibodies is sufficient for macrophage/microglia survival under limited M-CSF conditions, human macrophage differentiation and survival studies were performed using antibodies as described herein. Human monocytes isolated from peripheral blood were incubated with 5 ng/mL M-CSF in the presence of titrated concentrations of plate coated TREM2 antibodies or isotype controls. On day 6 cell viability was determined by CellTiter Glo viability assay.

[3] = system: human macrophages; experiment: Signaling pathway Alpha-LISA (pSYK, pERK1/2, pGSK3-beta, pAKT) in human macrophages; assay type: cell-based; conditions: 15 minutes
Procedure: Anti-TREM2 antibodies were characterized for activation of several signaling pathways, SYK, ERK1/2, AKT and GSK3-beta. Human macrophages differentiated from peripheral monocytes were plated in 96-well plates at a density of 100,000 cell/well. The assay was tested in three conditions (0%, 0.5%, and 10% FBS in the media) for 3 hours. Cells were stimulated with the antibody RS9.F6, 24B4.A1, 8A11.B1, 3D3.A1, 54C2.A1, isotype control IgG2ak, rat anti-TREM2 from R&D, isotype control rat IgG2b, or no treatment (NT) for 15 minutes. The cell lysates were measured for p-Y525/526-SYK, p-T202/Y204-ERK1/2, p-S9-GSK3-beta, and p-S473-AKT using Alpha-LISA kits (Perkin Elmer). […] The antibodies stimulated p-GSK signal moderately (FIG. 6C).

[4] = target: T4, TREM2 (Homo sapiens, UniProt Q9NZC2); experiment: FACS binning on human TREM2-HEK cells (competition with R&D antibody); assay type: binding; conditions: epitope bin, 100 nM antibody
T4 construct: expressed in transfected cells
Procedure: HEK293 overexpressing human TREM2 (H6) were harvested by 0.05% trypsin and incubated at 37° C. incubator for 2 hours for surface TREM2 recovery. After incubation, cells were washed with 1×PBS and FACS buffer (PBS+0.5% BSA) with human Trustain FcX solution (Biolegend, Cat #422302) was added at a density of 10^6/mL. Cells were seeded at 100,000 cells per well in a 96-well round-bottom and incubated 20 minutes at room temperature. After incubation, anti-TREM2 antibodies (100 nM) were added to the cells and the cells were incubated for 45 minutes on ice. After incubation, rat anti-h/mTREM2-APC antibody (1:100, R&D, Cat # FAB17291A) was added to the cells, and the cells were incubated for 30 minutes on ice. After incubation, cells were washed with FACS buffer three times and resuspended in 10 μL FACS buffer, then analyzed by flow cytometry (BD FACSCanto II, San Jose, Calif.). 20,000 events were obtained for each sample. The ability to compete with R&D antibody was determined by MFI analysis compared to isotype or buffer control wells.
T4 sequence (O43914 22-113 partner, one chain of several): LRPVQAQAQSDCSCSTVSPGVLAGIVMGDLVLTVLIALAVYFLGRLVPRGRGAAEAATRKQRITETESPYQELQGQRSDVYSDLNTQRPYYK

[5] = target: T1, hTREM2; experiment: Octet binning (competition with R&D antibody on biotinylated TREM2-His); assay type: binding; conditions: epitope bin, 100 nM
Procedure: Competition with R&D antibody was done by Octet Red using biotinylated human Trem2-His protein generated in house. Biotinylated human TREM2-His protein was captured on a streptavidin tip, and the tip was then incubated in either 100 nM of R&D Ab or buffer for 3 minutes, followed by incubation for 3 minutes in 100 nM of testing hybridoma. The difference of hybridoma binding curve with or without pre-binding to R&D antibody was analyzed to determine the epitope.

[6] = target: T2, TREM2; experiment: TREM2 pSyk antagonist assay on human macrophages (antibody pre-incubation, then liposomes); assay type: cell-based; conditions: FIGS. 9C-9D, 30 nM antibody
Procedure: Human macrophages were differentiated from donor blood using a human monocyte enrichment cocktail (Stem Cell Technologies) and culturing monocytes with human mCSF for five days in macrophage media (RPMI+10% Hyclone FBS+Glutamax+Pen/Strep+non-essential amino acids+sodium pyruvate). On the fifth day, the human macrophages were scraped from the flasks and were re-plated at 100,000 cells/well on a 96-well poly-D-lysine-coated plate in the macrophage media (without mCSF). The cells were incubated for 24 hours to adhere, then the media was removed.
Antibodies diluted in RPMI alone were immediately added to the cells, and allowed to incubate for 30 minutes at 37° C. The antibodies were then removed. Lipid vesicles comprised of 70% DOPC and 30% POPS (made according to the procedure for making vesicles described above) in HBSS were added to the cells and incubated […] at 37° C. The liposome/antibody solution was removed, and 35 μL lysis buffer (Cell Signaling Technologies, CST) was added using the liquid handler. The lysate was then incubated at 4° C. for 30 minutes, then either frozen at −80° C. or immediately carried forward to a pSyk AlphaLISA assay as described above.

[7] = target: T1, hTREM2; experiment: Biacore T200 binding kinetics to hTREM2; conditions: analyte hTREM2
Procedure: (§1) The binding of the TREM2/TfR-binding protein RS9.F6/3C35.21.17 to TREM2 and TfR was measured using SPR on a Biacore T200 instrument. To measure TfR binding, anti-human-Fab was immobilized on a CM5 chip, and the TREM2/TfR-binding protein was captured. Full-length human TfR or human TfR apical domain at serial dilution (e.g., concentrations of 1-1000 nM) was flowed over the chip (180 second association time) and then allowed to dissociate. Fitting was performed using a 1:1 binding model. To measure TREM2 binding, anti-human-Fc antibody was immobilized on a CM5 chip, and the TREM2/TfR-binding protein was captured. A range of concentrations of recombinant TREM2-His protein were flowed over the chip, and allowed to associate and dissociate. The resulting sensograms were fitted using a 1:1 Langmuir model to estimate kon and koff (FIG. 10).
(§2) The affinities of RS9.F6/3C35.21.17 for human TREM2 and TfR were determined by surface plasmon resonance using a Biacore™ T200. Biacore Series S CM5 sensor chips were immobilized with a mixture of two monoclonal mouse anti-Fab antibodies (Human Fab capture kit from GE Healthcare). Serial 3-fold dilutions of each antigen were injected at a flow rate of 30 μL/min. The binding of the antigens to captured antibody was monitored for 30 to 180 seconds and then their dissociation was monitored for 30-300 seconds in HBS-EP+running buffer (GE, # BR100669). Binding response was corrected by subtracting the RU from a blank flow cell. A 1:1 Languir model of simultaneous fitting of kon and koff was used for kinetics analysis.

[8] = system: hTfR apical domain; experiment: Biacore T200 binding kinetics to hTfR apical domain; design: species or system human; conditions: analyte hTfR apical domain
Procedure: as §1
as §2, with “Binding response was corrected by subtracting the RU from a blank flow cell. A 1:1 Languir model of simultaneous fitting of kon and koff was used for kinetics analysis.” left out

T3 sequence (O43914 22-113 partner, one chain of several): as above

STREM2 [1]	Bin by FACS [4]	Bin by Octet [5]	liposome mediated pSyk signaling after antibody pre-incubation [6]	ka [7] [M⁻¹ s⁻¹]	kd [7] [s⁻¹]	ka [8] [M⁻¹ s⁻¹]	kd [8] [s⁻¹]	Molecule	survival of human macrophages [2]	p-SYK signal [3]	pERK1/2 signal [3]
NC	1	1	enhanced	–	–	–	–	54C2.A1: anti-TREM2 antibody clone; VH SEQ ID NO:22, VL SEQ ID NO:33 (antibody, V domains shown) VH: QVHLQQSGSELRSPGSSVKLSCKDFDSEVFPIAYMSWVRQKPGHGFEWIGDILPSIGRRIYGVKFEDKATLDADTVSNTAYLELNSLTSEDSAIYYCTRKDYGSLAYWGQGTLVTVSA VL: DVVMTQTPLSLPVSLGDQASISCRSSQSLVHINGNTYLQWYLQKPGQSPKLLIYKVSNRFSGVPDRFSGSGSGTDFTLRISRVEAEDLGVYFCSQSTHLPYTFGGGTKLEIK	increased the survival	robust	robust
NC	1	1	–	–	–	–	–	24B4.A1: anti-TREM2 antibody clone; VH SEQ ID NO:17, VL SEQ ID NO:28 (antibody, V domains shown) VH: QVHLQQSGSELRSPGSSVKLSCKDFDSEVFPISYMSWIRQKPGHGFEWIGDILPSIGGRIYGVKFEDRATLDADTVSNTAYLELNSLTSEDSAIYYCARKDYGSLAYWGQGTLVTVSA VL: DVVMTQTPLSLPVSLGDQASISCRSSQSLVHINGNTYLQWFLQKPGQSPKLLIYKVSNRFSGVPDRFSGSGSGTAFTLKISRVEAEDLGVYFCSQSTHVPYTFGGGTKLEIK	increased the survival	robust	robust
–	–	–	–	150000	0.00038	1.7e+06	0.19	RS9.F6/3C35.21.17_LALAPG: TREM2/TfR-binding protein: RS9.F6 Fabs on TfR-binding knob Fc and hole Fc; SEQ ID NOs:35, 91, 92 (protein) light: DVVMTQTPLSLPVSLGDQASISCRSSQSLVHNNGNTFLHWYLQKPGQSPKLLIYKVSNRFSGVPDRFSGSGSGTDFTLKISRVEAEDLGVYFCSQTTHVPPTFGGGTKLEIK heavy 1: QVQLQQPGAELVKPGASVKLSCKASGYTFTSYWMHWVKQSPGRGLEWIGRSDPTTGGTNYNEKFKTKATLTVDKPSSTAYMQLSSLTSDDSAVYYCVRTSGTGDYWGQGTSLTVSSASTKGPSVFPLAPSSKSTSGGTAALGCLVKDYFPEPVTVSWNSGALTSGVHTFPAVLQSSGLYSLSSVVTVPSSSLGTQTYICNVNHKPSNTKVDKKVEPKSCDKTHTCPPCPAPEAAGGPSVFLFPPKPKDTLMISRTPEVTCVVVDVSHEDPEVKFNWYVDGVEVHNAKTKPREEQYNSTYRVVSVLTVLHQDWLNGKEYKCKVSNKALGAPIEKTISKAKGQPREPQVYTLPPSRDELTKNQVSLWCLVKGFYPSDIAVLWESYGTEWASYKTTPPVLDSDGSFFLYSKLTVTKEEWQQGFVFSCSVMHEALHNHYTQKSLSLSPGK heavy 2: QVQLQQPGAELVKPGASVKLSCKASGYTFTSYWMHWVKQSPGRGLEWIGRSDPTTGGTNYNEKFKTKATLTVDKPSSTAYMQLSSLTSDDSAVYYCVRTSGTGDYWGQGTSLTVSSASTKGPSVFPLAPSSKSTSGGTAALGCLVKDYFPEPVTVSWNSGALTSGVHTFPAVLQSSGLYSLSSVVTVPSSSLGTQTYICNVNHKPSNTKVDKKVEPKSCDKTHTCPPCPAPEAAGGPSVFLFPPKPKDTLMISRTPEVTCVVVDVSHEDPEVKFNWYVDGVEVHNAKTKPREEQYNSTYRVVSVLTVLHQDWLNGKEYKCKVSNKALGAPIEKTISKAKGQPREPQVYTLPPSRDELTKNQVSLSCAVKGFYPSDIAVEWESNGQPENNYKTTPPVLDSDGSFFLVSKLTVDKSRWQQGNVFSCSVMHEALHNHYTQKSLSLSPGK	–	–	–

From patent US20200277373A1, “ANTI-TREM2 ANTIBODIES AND METHODS OF USE THEREOF” (Denali Therapeutics Inc., priority 2017, published 2020)
